Test results reported in US20200087373A1 (UNIVERSITY OF COPENHAGEN, published 2020).
Ends that are not written are not given here. * marks the point of attachment. C16 diacid = O=C(O)CCCCCCCCCCCCCCC(=O)*

T1: human GIP receptor (human, UniProt P48546 22-466)
T1 sequence (looked up): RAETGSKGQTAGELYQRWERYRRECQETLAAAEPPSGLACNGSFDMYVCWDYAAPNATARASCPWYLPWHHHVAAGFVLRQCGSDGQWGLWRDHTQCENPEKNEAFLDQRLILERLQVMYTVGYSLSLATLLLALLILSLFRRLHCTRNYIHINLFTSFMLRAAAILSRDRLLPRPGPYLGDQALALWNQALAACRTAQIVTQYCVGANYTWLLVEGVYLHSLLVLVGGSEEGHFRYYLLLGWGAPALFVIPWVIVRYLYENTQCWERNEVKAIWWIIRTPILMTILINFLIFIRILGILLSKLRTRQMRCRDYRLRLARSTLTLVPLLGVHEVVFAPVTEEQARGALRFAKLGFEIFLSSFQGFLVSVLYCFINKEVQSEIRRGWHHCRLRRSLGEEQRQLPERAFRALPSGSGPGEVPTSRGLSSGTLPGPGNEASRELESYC


Assays:
human GIP receptor [1] = target: T1, human GIP receptor; assay: cell-based or functional assay
human GIP receptor [2] = target: T1, human GIP receptor; assay: 125I-hGIP(1-42) competition binding, COS-7 cells expressing human GIPR, without HSA;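 note: nonspecific binding defined as radioligand bound to cells lacking the transfected receptor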
Description: (§1) After incubation, the cells were washed twice in ice-cold binding buffer (+/−2% HSA) and lysed using 200 mM NaOH with 1% SDS for 30 min. Nonspecific binding was determined as the binding of radioactive ligand to untransfected cells.

human GIP receptor [3] = target: T1, human GIP receptor; assay: 125I-hGIP(1-42) competition binding, COS-7 cells expressing human GIPR, with 2% HSA;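 note: nonspecific signal taken as radioligand bound to untransfected cells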
Description: as §1

human GIP receptor [4] = target: T1, human GIP receptor; assay: ratio of Ki with 2% HSA to Ki without HSA, 125I-hGIP competition binding on hGIPR COS-7 cells;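 note: nonspecific binding was defined as radioligand signal on cells lacking the receptor transfection, with cell lysates measured after washes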
Description: as §1

Row | Binder | cAMP accumulation Fold (fold change from GIP(5-30)NH2) (human GIP receptor [1]) [fold] | cAMP accumulation IC50 (human GIP receptor [1]) [nM] | cAMP accumulation logIC50 (human GIP receptor [1]) | Ki (human GIP receptor [2]) [nM] | Ki (human GIP receptor [3]) [nM] | Fold (Ki + HSA / Ki - HSA) (human GIP receptor [4]) [fold]
1 | TFISDYSIAMDKK(C16 diacid)HQQDFVNWLLAQK-NH2 (N-terminus assumed; SMILES CC[C@H](C)[C@H](NC(=O)[C@H](CO)NC(=O)[C@H](Cc1ccc(O)cc1)NC(=O)[C@H](CC(=O)O)NC(=O)[C@H](CO)NC(=O)[C@@H](NC(=O)[C@H](Cc1ccccc1)NC(=O)[C@@H](N)[C@@H](C)O)[C@@H](C)CC)C(=O)N[C@@H](C)C(=O)N[C@@H](CCSC)C(=O)N[C@@H](CC(=O)O)C(=O)N[C@@H](CCCCN)C(=O)N[C@@H](CCCCNC(=O)CCCCCCCCCCCCCCC(=O)O)C(=O)N[C@@H](Cc1c[nH]cn1)C(=O)N[C@@H](CCC(N)=O)C(=O)N[C@@H](CCC(N)=O)C(=O)N[C@@H](CC(=O)O)C(=O)N[C@@H](Cc1ccccc1)C(=O)N[C@H](C(=O)N[C@@H](CC(N)=O)C(=O)N[C@@H](Cc1c[nH]c2ccccc12)C(=O)N[C@@H](CC(C)C)C(=O)N[C@@H](CC(C)C)C(=O)N[C@@H](C)C(=O)N[C@@H](CCC(N)=O)C(=O)N[C@@H](CCCCN)C(N)=O)C(C)C) [AT178 [hGIP(5-30)NH2[I17K]-C16diacid/17]] | 1 | 27.5 | -7.56 log(M) | 54.3 | 243 | 4.5
2 | TFISDYSIAMDKIHK(C16 diacid)QDFVNWLLAQK-NH2 (N-terminus assumed; SMILES CC[C@H](C)[C@H](NC(=O)[C@H](CO)NC(=O)[C@H](Cc1ccc(O)cc1)NC(=O)[C@H](CC(=O)O)NC(=O)[C@H](CO)NC(=O)[C@@H](NC(=O)[C@H](Cc1ccccc1)NC(=O)[C@@H](N)[C@@H](C)O)[C@@H](C)CC)C(=O)N[C@@H](C)C(=O)N[C@@H](CCSC)C(=O)N[C@@H](CC(=O)O)C(=O)N[C@@H](CCCCN)C(=O)N[C@H](C(=O)N[C@@H](Cc1c[nH]cn1)C(=O)N[C@@H](CCCCNC(=O)CCCCCCCCCCCCCCC(=O)O)C(=O)N[C@@H](CCC(N)=O)C(=O)N[C@@H](CC(=O)O)C(=O)N[C@@H](Cc1ccccc1)C(=O)N[C@H](C(=O)N[C@@H](CC(N)=O)C(=O)N[C@@H](Cc1c[nH]c2ccccc12)C(=O)N[C@@H](CC(C)C)C(=O)N[C@@H](CC(C)C)C(=O)N[C@@H](C)C(=O)N[C@@H](CCC(N)=O)C(=O)N[C@@H](CCCCN)C(N)=O)C(C)C)[C@@H](C)CC) [AT179 [hGIP(5-30)NH2[Q19K]-C16diacid/19]] | 2.1 | 57.5 | -7.24 log(M) | 378 | 2380 | 6.3
3 | TFISDYSIAMDKIHQK(C16 diacid)DFVNWLLAQK-NH2 (N-terminus assumed; SMILES CC[C@H](C)[C@H](NC(=O)[C@H](CO)NC(=O)[C@H](Cc1ccc(O)cc1)NC(=O)[C@H](CC(=O)O)NC(=O)[C@H](CO)NC(=O)[C@@H](NC(=O)[C@H](Cc1ccccc1)NC(=O)[C@@H](N)[C@@H](C)O)[C@@H](C)CC)C(=O)N[C@@H](C)C(=O)N[C@@H](CCSC)C(=O)N[C@@H](CC(=O)O)C(=O)N[C@@H](CCCCN)C(=O)N[C@H](C(=O)N[C@@H](Cc1c[nH]cn1)C(=O)N[C@@H](CCC(N)=O)C(=O)N[C@@H](CCCCNC(=O)CCCCCCCCCCCCCCC(=O)O)C(=O)N[C@@H](CC(=O)O)C(=O)N[C@@H](Cc1ccccc1)C(=O)N[C@H](C(=O)N[C@@H](CC(N)=O)C(=O)N[C@@H](Cc1c[nH]c2ccccc12)C(=O)N[C@@H](CC(C)C)C(=O)N[C@@H](CC(C)C)C(=O)N[C@@H](C)C(=O)N[C@@H](CCC(N)=O)C(=O)N[C@@H](CCCCN)C(N)=O)C(C)C)[C@@H](C)CC) [AT180 [hGIP(5-30)NH2[Q20K]-C16diacid/20]] | 1.7 | 46.8 | -7.33 log(M) | 82.8 | 533 | 6.4
